Laboratory results reported in patent US20220064286A1 (Genentech, published 2022).

T1: human TIGIT protein (human, UniProt Q495A1 22-141, limits assumed)
T1 construct: Recombinant protein (Genentech) used in ELISA screening and as SPR analyte; also called TIGIT antigen
T1 sequence: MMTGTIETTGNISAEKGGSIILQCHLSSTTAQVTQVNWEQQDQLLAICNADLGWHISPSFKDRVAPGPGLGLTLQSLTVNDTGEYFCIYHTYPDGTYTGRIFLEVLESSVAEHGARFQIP


Experiments:
human TIGIT protein [1] = target: T1, human TIGIT protein; experiment: SPR, against h15C8.L1H1 (implied)
Method: (§1) Briefly, a series S CM5 biosensor chip was activated with N-ethyl-N′-(3-dimethylaminopropyl)-carbodiimide hydrochloride (EDC) and N-hydroxysuccinimide (NHS) reagents according to the supplier's (GE Healthcare Biosciences, Piscataway, N.J.) instructions, and a human antibody capture kit was applied to couple goat anti-human Fc IgGs in order to achieve approximately 10,000 response units (RU) on each flow cell, followed by blocking un-reacted groups with 1M ethanolamine.
(§2) (flow rate: 30 μl/min) with no regeneration between injections. The sensorgrams were recorded and evaluated by BIAcore™ T200 Evaluation Software (version 2.0) after subtraction of reference cell signal. Association rates (kₒₙ) and dissociation rates (koff) were calculated using a simple one-to-one Langmuir binding model. The equilibrium dissociation constant (KD) was calculated as the ratio koff/kₒₙ.
(§3) The first humanized versions, h6B2, L1H1, h10A5.L1H1, h7E7, L1H1, and h15C8.L1H1, which contain both rat CDRs and framework residues at Vernier positions, and the fully humanized versions, h6B2.L2H5, h10A5.L4H4, h7E7.L5H9, and h15C8.L5H9, which contain only rat CDRs were subject to BIAcore affinity measurement by comparison with original rat antibodies, rat6B2, rat10A5, rat7E7 and rat 15C8. For binding affinity determinations of TIGIT antibodies against human TIGIT, cynomolgus monkey TIGIT and human alanine-scanned TIGIT mutants by single-cycle kinetics, Surface Plasmon Resonance (SRP) measurement with a BIACORE™-T200 instrument was used, as described above.

[2] = target: T2, cynomolgus monkey (cyno) TIGIT protein (cynomolgus monkey, UniProt A0A7N9I9V4 89-209); experiment: SPR, against h15C8.L1H1 (implied)
T2 sequence (A0A7N9I9V4 entry or part of it): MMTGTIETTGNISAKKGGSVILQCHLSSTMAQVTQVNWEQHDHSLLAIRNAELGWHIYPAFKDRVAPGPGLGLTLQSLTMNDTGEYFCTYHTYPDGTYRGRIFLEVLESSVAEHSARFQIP
Method: as §1, §2, §3

human TIGIT protein [3] = target: T1, human TIGIT protein; experiment: SPR, against h7E7.L1H1 (implied)
Method: as §1, §2, §3

[4] = target: T2, cynomolgus monkey (cyno) TIGIT protein; experiment: SPR, against h7E7.L1H1 (implied)
Method: as §1, §2, §3

human TIGIT protein [5] = target: T1, human TIGIT protein; experiment: SPR, captured mAb
[6] = target: T2, cynomolgus monkey (cyno) TIGIT protein; experiment: SPR, captured mAb

Binder | fold drop in binding affinity (human TIGIT protein [1]) | fold drop in binding affinity [2] | fold drop in binding affinity (human TIGIT protein [3]) | fold drop in binding affinity [4] | Kd (human TIGIT protein [5]) | Kd [6]
h15C8.L1H3 (antibody, V domains shown, VH: I47W against h15C8.L1H1; FR/HVR pieces) VH: EVQLVQSGAEVKKPGASVKVSCKASGYTFTEHSIYWLRQAPGQRLEWIGRIDPKNGRTYFVDKFKNRATLTTDTSASTAYMELSSLRSEDTAVYFCARIDGFYFDFWGQGTLVTVSS VL: DIQLTQSPSFLSASVGDRVTITCKGSQNVNKYLVWYQQKPGKAPKLLIYSTDNLQSGIPSRFSGSGSGTEYTLTISSLQPEDFATYFCYQYNNGFTFGQGTKVEIK | > 100 fold | > 100 fold | – | – | – | –
h7E7.L1H9 (antibody, V domains shown, VH: all seven Vernier residues back to human; FR/HVR pieces) VH: EVQLVQSGAEVKKPGASVKVSCKASGYTFTEYSIYWVRQAPGQRLEWMGRIDPKNGRTYYVDKFKNRVTITRDTSASTAYMELSSLRSEDTAVYYCARIYGFYFDFWGQGTLVTVSS VL: DIQLTQSPSFLSASVGDRVTITCKGSQNVNKYLVWYQQKPGKAPKLLIYNTDNLQSGIPSRFSGSGSGTEYTLTISSLQPEDFATYFCYQYNNGFTFGQGTKVEIK | – | – | > 100 fold | > 100 fold | – | –

Next, values leading:

fold drop in binding affinity (human TIGIT protein [1]) | fold drop in binding affinity [2] | fold drop in binding affinity (human TIGIT protein [3]) | fold drop in binding affinity [4] | Kd (human TIGIT protein [5]) | Kd [6] | Binder
> 100 fold | > 100 fold | – | – | – | – | h15C8.L1H9 (antibody, V domains shown, VH: all seven Vernier residues back to human; FR/HVR pieces) VH: EVQLVQSGAEVKKPGASVKVSCKASGYTFTEHSIYWVRQAPGQRLEWMGRIDPKNGRTYFVDKFKNRVTITRDTSASTAYMELSSLRSEDTAVYYCARIDGFYFDFWGQGTLVTVSS VL: DIQLTQSPSFLSASVGDRVTITCKGSQNVNKYLVWYQQKPGKAPKLLIYSTDNLQSGIPSRFSGSGSGTEYTLTISSLQPEDFATYFCYQYNNGFTFGQGTKVEIK
> 100 fold | > 100 fold | – | – | > 100 nM | > 100 nM | h15C8.L5H9 (antibody, V domains shown, Fully humanized version; FR/HVR pieces) VH: EVQLVQSGAEVKKPGASVKVSCKASGYTFTEHSIYWVRQAPGQRLEWMGRIDPKNGRTYFVDKFKNRVTITRDTSASTAYMELSSLRSEDTAVYYCARIDGFYFDFWGQGTLVTVSS VL: DIQLTQSPSFLSASVGDRVTITCKGSQNVNKYLVWYQQKPGKAPKLLIYSTDNLQSGVPSRFSGSGSGTEFTLTISSLQPEDFATYYCYQYNNGFTFGQGTKVEIK
